Measurements reported in the supplement of paper PMC10724198.
± gives the standard deviation of the averaged measurements.

Key:
Saccharomyces cerevisiae [1] = test: protein stability index of tFT-peptide fusion (C-terminal peptide) (PSI (0-1 scale)); higher = more stable (slower turnover)
Protocol: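 MPS profiling in S. cerevisiae of the tFT-X12 degron library: putative degron peptides plus stable controls, 12 aa, fused to the C-terminus of a sfGFP-mCherry timer. Cells are FACS-sorted into 8 mCherry/sfGFP bins and deep-sequenced. PSI runs from 0 (unstable) to 1 (stable). Backgrounds are wild type, das1Δ and doa10Δ at 30 °C, and wild type, das1Δ, cdc34-1 and cdc53-1 at 37 °C; 2-3 technical replicates each.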

Saccharomyces cerevisiae [2] = test: as above; conditions: genetic background: wild type; temperature: 30 C
[3] = genetic background: cdc34-1, temperature: 37 C
[4] = genetic background: cdc53-1, temperature: 37 C
[5] = genetic background: das1 deletion, temperature: 30 C
[6] = genetic background: das1 deletion, temperature: 37 C
[7] = genetic background: doa10 deletion, temperature: 30 C
[8] = genetic background: wild type, temperature: 30 C
[9] = genetic background: wild type, temperature: 37 C
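Note: PSI is a weighted mean of sequencing reads over stability bins, variants kept only with over 10 reads, mCherry proximal and sfGFP distal, peptide attached via GGGS linker.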

| Sequence | protein stability index (Saccharomyces cerevisiae [1]; [3]) | protein stability index (Saccharomyces cerevisiae [1]; [4]) | protein stability index (Saccharomyces cerevisiae [1]; [5]) | protein stability index (Saccharomyces cerevisiae [1]; [6]) | protein stability index (Saccharomyces cerevisiae [1]; [7]) | protein stability index (Saccharomyces cerevisiae [1]; [8]) | protein stability index (Saccharomyces cerevisiae [1]; [9]) | protein stability index (Saccharomyces cerevisiae [2]) |
| --- | --- | --- | --- | --- | --- | --- | --- | --- |
| FTLFFVASVLDL | 0.48 ± 0.021 | 0.518 ± 0.01 | 0.378 ± 0.03 | 0.53241 ± 0.00048 | 0.358 ± 0.007 | 0.386 ± 0.026 | 0.511 ± 0.011 | 0.446 ± 0.0073 |
| FVGLFEYILLFV | 0.186 ± 0.009 | 0.167 ± 0.029 | 0.201 ± 0.028 | 0.358 ± 0.0079 | 0.263 ± 0.0056 | 0.201 ± 0.028 | 0.348 ± 0.0072 | 0.29 ± 0.036 |
| FVLLTFLFFWQF | 0.349 ± 0.014 | 0.441 ± 0.028 | 0.321 ± 0.031 | 0.476 ± 0.019 | 0.287 ± 0.007 | 0.299 ± 0.018 | 0.441 ± 0.016 | 0.328 ± 0.03 |
| FVLWYFCCVGCM | 0.241 ± 0.017 | 0.305 ± 0.018 | 0.232 ± 0.026 | 0.366 ± 0.011 | 0.196 ± 0.015 | 0.226 ± 0.03 | 0.342 ± 0.03 | 0.321 ± 0.016 |
| FVRCFWPFVFVF | 0.17 ± 0.01 | 0.142 ± 0.021 | 0.222 ± 0.031 | 0.332 ± 0.0095 | 0.139 ± 0.0072 | 0.126 ± 0.0099 | 0.14 ± 0.012 | 0.203 ± 0.023 |
| FVRGWGIVFSLA | 0.571 ± 0.031 | 0.599 ± 0.023 | 0.438 ± 0.036 | 0.594 ± 0.015 | 0.225 ± 0.012 | 0.268 ± 0.016 | 0.467 ± 0.011 | 0.41 ± 0.01 |
| FVWWFFFLSVVS | 0.277 ± 0.0019 | 0.306 ± 0.023 | 0.265 ± 0.032 | 0.3987 ± 0.0029 | 0.255 ± 0.016 | 0.216 ± 0.018 | 0.334 ± 0.025 | 0.26 ± 0.018 |
| FWILLRVLIFVL | 0.176 ± 0.027 | 0.172 ± 0.0087 | 0.18 ± 0.033 | 0.321 ± 0.0095 | 0.182 ± 0.0047 | 0.175 ± 0.028 | 0.246 ± 0.03 | 0.266 ± 0.011 |
| FYFMGFFFGLGM | 0.589 ± 0.021 | 0.627 ± 0.052 | 0.519 ± 0.047 | 0.617 ± 0.057 | 0.481 ± 0.016 | 0.504 ± 0.016 | 0.597 ± 0.023 | 0.516 ± 0.046 |
| FYLFPSLPLLLL | 0.424 ± 0.018 | 0.432 ± 0.022 | 0.422 ± 0.018 | 0.544 ± 0.03 | 0.477 ± 0.023 | 0.339 ± 0.03 | 0.46 ± 0.0072 | 0.452 ± 0.044 |
| FYLSFWFLIFFF | 0.227 ± 0.011 | 0.251 ± 0.023 | 0.273 ± 0.031 | 0.353 ± 0.029 | 0.325 ± 0.036 | 0.215 ± 0.036 | 0.315 ± 0.017 | 0.312 ± 0.0092 |
| GCCFVCSVFWWG | 0.407 ± 0.0055 | 0.493 ± 0.0055 | 0.348 ± 0.031 | 0.528 ± 0.0081 | 0.327 ± 0.014 | 0.353 ± 0.015 | 0.507 ± 0.011 | 0.431 ± 0.011 |
| GCWRVELLVFMC | 0.0459 ± 0.0044 | 0.205 ± 0.011 | 0.185 ± 0.03 | 0.33 ± 0.015 | 0.053 ± 0.02 | 0.0595 ± 0.017 | 0.0748 ± 0.03 | 0.0681 ± 0.02 |
| GDFYCSSVVLVV | 0.401 ± 0.013 | 0.401 ± 0.036 | 0.332 ± 0.032 | 0.484 ± 0.018 | 0.278 ± 0.014 | 0.32 ± 0.031 | 0.445 ± 0.0082 | 0.306 ± 0.0044 |
| GEGISCLLRRLT | 0.662 ± 0.013 | 0.709 ± 0.018 | 0.661 ± 0.024 | 0.713 ± 0.036 | 0.2625 ± 0.00058 | 0.286 ± 0.022 | 0.544 ± 0.033 | 0.413 ± 0.057 |
| GFLAVTVACVWR | 0.0513 ± 0.0097 | 0.136 ± 0.0021 | 0.154 ± 0.018 | 0.258 ± 0.013 | 0.13 ± 0.014 | 0.145 ± 0.037 | 0.213 ± 0.026 | 0.255 ± 0.048 |
| GFLWFCGVPVGW | 0.695 ± 0.026 | 0.7385 ± 0.0044 | 0.609 ± 0.017 | 0.72 ± 0.027 | 0.613 ± 0.031 | 0.613 ± 0.012 | 0.707 ± 0.018 | 0.571 ± 0.2 |
| GFVSLFRLFIRL | 0.241 ± 0.073 | 0.218 ± 0.02 | 0.352 ± 0.032 | 0.4652 ± 0.0042 | 0.405 ± 0.024 | 0.25 ± 0.013 | 0.3595 ± 0.0028 | 0.36 ± 0.066 |
| GGGHGSSCSVCD | 0.67 ± 0.035 | 0.74 ± 0.034 | 0.665 ± 0.023 | 0.69544 ± 0.00064 | 0.646 ± 0.013 | 0.645 ± 0.0097 | 0.702 ± 0.019 | 0.744 ± 0.032 |
| GGGWGVFVVLWW | 0.193 ± 0.012 | 0.325 ± 0.0065 | 0.216 ± 0.034 | 0.4026 ± 0.0031 | 0.194 ± 0.0027 | 0.213 ± 0.031 | 0.355 ± 0.038 | 0.318 ± 0.028 |

| Sequence | protein stability index (Saccharomyces cerevisiae [1]; [3]) | protein stability index (Saccharomyces cerevisiae [1]; [4]) | protein stability index (Saccharomyces cerevisiae [1]; [5]) | protein stability index (Saccharomyces cerevisiae [1]; [6]) | protein stability index (Saccharomyces cerevisiae [1]; [7]) | protein stability index (Saccharomyces cerevisiae [1]; [8]) | protein stability index (Saccharomyces cerevisiae [1]; [9]) | protein stability index (Saccharomyces cerevisiae [2]) |
| --- | --- | --- | --- | --- | --- | --- | --- | --- |
| GGIVLLVRVCGP | 0.55 ± 0.016 | 0.636 ± 0.0091 | 0.436 ± 0.019 | 0.6149 ± 0.0012 | 0.389 ± 0.0083 | 0.422 ± 0.018 | 0.601 ± 0.025 | 0.46 ± 0.011 |
| GGLLSQLLRSIG | 0.664 ± 0.026 | 0.723 ± 0.019 | 0.617 ± 0.024 | 0.743 ± 0.0075 | 0.2341 ± 0.0008 | 0.279 ± 0.055 | 0.5807 ± 0.0052 | 0.425 ± 0.047 |
| GGRWRRRGFFFS | 0.6973 ± 0.0024 | 0.72 ± 0.01 | 0.702 ± 0.032 | 0.709 ± 0.026 | 0.627 ± 0.0095 | 0.628 ± 0.01 | 0.673 ± 0.014 | 0.518 ± 0.097 |
| GGYCQMFFLYFR | 0.0593 ± 0.039 | 0.0464 ± 0.018 | 0.0923 ± 0.042 | 0.0948 ± 0.0031 | 0.575 ± 0.021 | 0.0833 ± 0.0047 | 0.0907 ± 0.031 | 0.141 ± 0.021 |
| GHHLRVRVILTA | 0.4104 ± 0.00042 | 0.435 ± 0.0077 | 0.311 ± 0.026 | 0.47 ± 0.013 | 0.16006 ± 0.00015 | 0.189 ± 0.019 | 0.297 ± 0.013 | 0.275 ± 0.054 |
| GICLVLVSDIWI | 0.579 ± 0.032 | 0.558 ± 0.0064 | 0.413 ± 0.026 | 0.599 ± 0.018 | 0.374 ± 0.04 | 0.39 ± 0.014 | 0.568 ± 0.029 | 0.441 ± 0.018 |
| GIGYMFLNVWLV | 0.234 ± 0.036 | 0.302 ± 0.0072 | 0.246 ± 0.024 | 0.4208 ± 0.00089 | 0.0963 ± 0.011 | 0.0848 ± 0.015 | 0.122 ± 0.017 | 0.153 ± 0.022 |
| GKGVFGGLFFLV | 0.667 ± 0.029 | 0.741 ± 0.019 | 0.623 ± 0.027 | 0.755 ± 0.013 | 0.182 ± 0.0027 | 0.211 ± 0.021 | 0.465 ± 0.011 | 0.294 ± 0.0074 |
| GLGLIRTSRLLC | 0.609 ± 0.008 | 0.695 ± 0.026 | 0.627 ± 0.02 | 0.718 ± 0.0034 | 0.148 ± 0.027 | 0.186 ± 0.029 | 0.296 ± 0.027 | 0.278 ± 0.037 |
| GLLAFVCISHTS | 0.497 ± 0.044 | 0.542 ± 0.0086 | 0.378 ± 0.033 | 0.575 ± 0.019 | 0.312 ± 0.0026 | 0.344 ± 0.026 | 0.5396 ± 0.0015 | 0.458 ± 0.039 |
| GLPRRFLLLSVV | 0.328 ± 0.008 | 0.4613 ± 0.0015 | 0.354 ± 0.033 | 0.508 ± 0.015 | 0.11 ± 0.016 | 0.137 ± 0.016 | 0.114 ± 0.02 | 0.218 ± 0.0055 |
| GPHATYLYLVLA | 0.199 ± 0.022 | 0.258 ± 0.022 | 0.226 ± 0.039 | 0.34 ± 0.0059 | 0.1579 ± 0.00054 | 0.177 ± 0.018 | 0.22866 ± 0.00017 | 0.2383 ± 0.00092 |
| GPRRARLPNFLA | 0.445 ± 0.013 | 0.684 ± 0.031 | 0.657 ± 0.018 | 0.715 ± 0.018 | 0.0795 ± 0.025 | 0.0947 ± 0.025 | 0.123 ± 0.022 | 0.085 ± 0.012 |
| GQSRLVADLRQV | 0.635 ± 0.055 | 0.6934 ± 0.0012 | 0.646 ± 0.012 | 0.678 ± 0.018 | 0.676 ± 0.035 | 0.676 ± 0.0081 | 0.675 ± 0.025 | 0.7147 ± 0.00089 |
| GRGFVLSVAVVA | 0.404 ± 0.011 | 0.453 ± 0.031 | 0.395 ± 0.034 | 0.502 ± 0.0094 | 0.363 ± 0.0089 | 0.395 ± 0.021 | 0.467 ± 0.0049 | 0.435 ± 0.012 |
| GRVCWVVLAGLV | 0.593 ± 0.04 | 0.591 ± 0.053 | 0.441 ± 0.026 | 0.6202 ± 0.0013 | 0.307 ± 0.01 | 0.341 ± 0.026 | 0.5394 ± 0.0042 | 0.429 ± 0.0095 |
| GTVRSLLKWRCS | 0.654 ± 0.051 | 0.732 ± 0.0075 | 0.651 ± 0.027 | 0.7431 ± 0.0073 | 0.148 ± 0.016 | 0.192 ± 0.02 | 0.384 ± 0.011 | 0.3259 ± 0.00055 |
| GVCLGFICVGFC | 0.494 ± 0.028 | 0.55 ± 0.0067 | 0.359 ± 0.031 | 0.576 ± 0.032 | 0.343 ± 0.029 | 0.362 ± 0.026 | 0.522 ± 0.0075 | 0.444 ± 0.018 |
| GVCWCVLFVVGC | 0.312 ± 0.012 | 0.417 ± 0.059 | 0.271 ± 0.027 | 0.484 ± 0.006 | 0.226 ± 0.012 | 0.259 ± 0.02 | 0.428 ± 0.052 | 0.359 ± 0.013 |
